B1: wild-type FokI restriction endonuclease (enzyme, UniProt P14870 1-579, looked up)
chain: MVSKIRTFGWVQNPGKFENLKRVVQVFDRNSKVHNEVKNIKIPTLVKESKIQKELVAIMNQHDLIYTYKELVGTGTSIRSEAPCDAIIQATIADQGNKKGYIDNWSSDGFLRWAHALGFIEYINKSDSFVITDVGLAYSKSADGSAIEKEILIEAISSYPPAIRILTLLEDGQHLTKFDLGKNLGFSGESGFTSLPEGILLDTLANAMPKDKGEIRNNWEGSSDKYARMIGGWLDKLGLVKQGKKEFIIPTLGKPDNKEFISHAFKITGEGLKVLRRAKGSTKFTRVPKRVYWEMLATNLTDKEYVRTRRALILEILIKAGSLKIEQIQDNLKKLGFDEVIETIENDIKGLINTGIFIEIKGRFYQLKDHILQFVIPNRGVTKQLVKSELEEKKSELRHKLKYVPHEYIELIEIARNSTQDRILEMKVMEFFMKVYGYRGKHLGGSRKPDGAIYTVGSPIDYGVIVDTKAYSGGYNLPIGQADEMQRYVEENQTRNKHINPNEWWKVYPSSVTEFKFLFVSGHFKGNYKAQLTRLNHITNCNGAVLSVEELLIGGEMIKAGTLTLEEVRRKFNNGEINF

Legend:
[1] = molecular target: the molecule itself; assay: single-turnover enzyme kinetics
[2] = molecular target: B1; assay: steady-state enzyme kinetics

Row | Binder | Kd [1] [nM] | Kd [2] [nM]
1 | B1 | 99 ± 19 | –
2 | N13Y variant of the FokI endonuclease (enzyme, UniProt P14870 1-579, looked up) MVSKIRTFGWVQYPGKFENLKRVVQVFDRNSKVHNEVKNIKIPTLVKESKIQKELVAIMNQHDLIYTYKELVGTGTSIRSEAPCDAIIQATIADQGNKKGYIDNWSSDGFLRWAHALGFIEYINKSDSFVITDVGLAYSKSADGSAIEKEILIEAISSYPPAIRILTLLEDGQHLTKFDLGKNLGFSGESGFTSLPEGILLDTLANAMPKDKGEIRNNWEGSSDKYARMIGGWLDKLGLVKQGKKEFIIPTLGKPDNKEFISHAFKITGEGLKVLRRAKGSTKFTRVPKRVYWEMLATNLTDKEYVRTRRALILEILIKAGSLKIEQIQDNLKKLGFDEVIETIENDIKGLINTGIFIEIKGRFYQLKDHILQFVIPNRGVTKQLVKSELEEKKSELRHKLKYVPHEYIELIEIARNSTQDRILEMKVMEFFMKVYGYRGKHLGGSRKPDGAIYTVGSPIDYGVIVDTKAYSGGYNLPIGQADEMQRYVEENQTRNKHINPNEWWKVYPSSVTEFKFLFVSGHFKGNYKAQLTRLNHITNCNGAVLSVEELLIGGEMIKAGTLTLEEVRRKFNNGEINF | – | 166 ± 73
